In patent US20240124575A1 (SIMCERE ZAIMING PHARMACEUTICAL, published 2024):

B1: C33B904 hIgG1 (antibody, V domains shown)
VH: EVQLVESGGGLVQPGRSLRLSCAASGFTFDDYAMHWVRQAPGKGLEWVSGIGWSGGSIVYADSVKGRFTISRDNAKNSLYLQMNSLRAEDTALYYCAKDSPYGDFFDYWGQGTLVTVSS
VL: DIVMTQSPDSLAVSLGERATINCKSSQTVFYSSNNKNYLAWYQQKPGQPPKLLISWASTRKSGVPDRFSGSGSGTDFTLTVSSLQAEDVAVYYCQHYYSTPYTFGQGTKLEIKR
notes: intact human IgG1; variable regions from US20190382481A1; also called C33B3904; C331B904
B2: C33B904 (antibody, human IgG1, kappa, V domains shown)
VH: EVQLVESGGGLVQPGRSLRLSCAASGFTFDDYAMHWVRQAPGKGLEWVSGIGWSGGSIVYADSVKGRFTISRDNAKNSLYLQMNSLRAEDTALYYCAKDSPYGDFFDYWGQGTLVTVSS
VL: DIVMTQSPDSLAVSLGERATINCKSSQTVFYSSNNKNYLAWYQQKPGQPPKLLISWASTRKSGVPDRFSGSGSGTDFTLTVSSLQAEDVAVYYCQHYYSTPYTFGQGTKLEIKR
notes: control antibody, intact human IgG1 form; variable regions from US20190382481A1; also called C33B904 hIgG1; C331B904

What was measured:
monkey CD33-His protein = biological target: T1, monkey CD33-His protein (monkey); experiment: ELISA on coated monkey CD33-his
T1 construct: also called monkey CD33 protein

[1] = biological target: T2, human CD33-His (extracellular domain Asp 18-His 259) (human, UniProt P20138 18-259); experiment: competitive ELISA vs coated S006-NB146-181 3ug/mL; soluble 25ug/ml
T2 construct: range 18-259; bought protein; also called hCD33-his; human CD33 protein; not shown: His tag

[2] = biological target: T2, human CD33-His (extracellular domain …); experiment: competitive ELISA vs coated S006-NB146-132 2ug/mL; soluble 25ug/ml
Experimental: (§1) VHH antibodies and control antibodies with known epitopes were subjected to epitope classification with competitive ELISA. ELISA plates were coated with 2 μg/mL antibodies according to the method in Example 5.1; the human CD33-his protein was subjected to a gradient dilution from 30 μg/mL, and EC80 values (Tables 26-27) were calculated. ELISA plates were coated with 2 μg/mL antibodies; after 25 µg/mL of antibodies to be tested were added, a human CD33-his protein having an EC80 concentration corresponding to each of the antibodies to be tested was then added for incubation for 2 h. The plates were washed 5 times with PBS, then HRP-labeled anti-His antibodies (purchased from GenScript, Cat. No. A00612) were added for incubation for 1 h, and the plates were washed 5 times. A TMB substrate was added at 50 μL/well and incubated at room temperature for 10 min, then a stop solution (1.0 M HCl) was added at 50 μL/well. OD_{450 nm} values were read using an ELISA plate reader (Insight, purchased from PerkinElmer), and the competition rate between the antibodies was calculated according to the OD_{450 nm} values using a formula. The results are shown in FIGS. 12A-12B, the higher the value of the competition rate, the closer the epitopes to which two antibodies bind.

[3] = biological target: T2, human CD33-His (extracellular domain …); experiment: competitive ELISA vs coated S006-NB146-139 3ug/mL; soluble 25ug/ml
human CD33-C2-his = biological target: T3, human CD33-C2-his (human, UniProt P20138 136-260); experiment: ELISA on coated human CD33-C2-his
T3 construct: expressed in HEK293E; also called hCD33-C2-his; human CD33 protein C2-domain; not shown: His tag
Text: Plates were coated with human CD33-V-his (membrane distal end) and human CD33-C2-his (membrane proximal end), respectively, according to the ELISA method in Example 8. The VHH humanized antibodies were classified based on the membrane distal end and the membrane proximal end, as shown in FIGS. 20A-20J and Table 44, which allowed the classification of the VHH humanized antibodies into the following classes: […]

[4] = biological target: T2, human CD33-His (extracellular domain …); experiment: competitive ELISA vs coated S006-NB146-1 2ug/mL; soluble 25ug/ml
Experimental: as §1

[5] = biological target: T2, human CD33-His (extracellular domain …); experiment: competitive ELISA vs coated S006-NB147-25 3ug/mL; soluble 25ug/ml
human CD33-his protein [6] = biological target: T4, human CD33-his protein (human, UniProt P20138 18-259); experiment: competition ELISA, coated human CD33-his, vs Biotin-C33B904 at EC80; antibody 1.95 nM
T4 construct: range 18-259; bought protein; also called hCD33-his; recombinant human CD33-his; not shown: His tag
Experimental: (§2) ELISA plates were coated with 2 μg/mL human CD33-his protein according to the method in Example 5.1; the Biotin-C331B904 antibody was subjected to a gradient dilution from 15 μg/mL, and EC80 values (0.18 μg/mL) were calculated. ELISA plates were coated with 2 μg/mL human CD33-his protein; starting from 40 μg/mL, the VHH antibodies to be tested were diluted in a 1:2 dilution ratio to obtain seven concentrations and added to the ELISA plates, and then Biotin-C331904 antibodies with the EC80 concentrations were added for incubation for 2 h. The plates were washed 5 times with PBS and then […] (purchased from Sigma, Cat. No. S2438) were added for incubation for 1 h, and the plates were washed 5 times. A TMB substrate was added at 50 μL/well and incubated at room temperature for 10 min, then a stop solution (1.0 M HCl) was added at 50 μL/well. OD_{450 nm} values were read using an ELISA plate reader (Insight, purchased from PerkinElmer). Then, analysis was performed by software (GraphPad Prism8), and data were fitted for curve plotting. The results are shown in FIGS. 13A-13B and Tables 28 and 29.

human CD33-his protein [7] = biological target: T4, human CD33-his protein; experiment: competition ELISA, coated human CD33-his, vs Biotin-C33B904 at EC80; antibody 15.63 nM
Experimental: (§3) The plate was sealed with a plastic film and incubated at 4° C. overnight, washed twice with PBS the next day, and a blocking solution [PBS+2% (w/w) BSA] was added for blocking at room temperature for 2 h. The blocking solution was discarded, and VHH-Fc antibody or negative control antibody serially diluted from 100 nM was added at 50 μL/well. After incubation at 37° C. for 2 h, the plate was washed 3 times with PBS. A secondary antibody labeled with HRP (horseradish peroxidase) (purchased from Sigma, Cat. No. A0170) was added. After incubation for 1 h at 37° C., the plate was washed 5 times with PBS. A TMB substrate was added at 50 μL/well. After incubation at room temperature for 10 min, a stop solution (1.0 N HCl) was added at 50 μL/well. The OD450 nm values were read on an ELISA plate reader (Multimode Plate Reader, EnSight, purchased from Perkin Elmer). The assay results for the binding of the VHH-Fc to hCD33-his by ELISA are shown in FIGS. 7A and 7B and Tables 11 and 12. […] The IgG control was hIgG1, and the data in the table are OD450 nm values.
(§4) ELISA plates were coated with 2 μg/mL human CD33-his protein according to the method in Example 5.1; the Biotin-C331B904 antibody was subjected to a gradient dilution from 15 μg/mL, and EC80 values (0.18 μg/mL) were calculated. […] OD_{450 nm} values were read using an ELISA plate reader (Insight, purchased from PerkinElmer). […]

human CD33-his protein [8] = biological target: T4, human CD33-his protein; experiment: competition ELISA, coated human CD33-his, vs Biotin-C33B904 at EC80; antibody 62.50 nM
Experimental: as §2

human CD33-his protein [9] = biological target: T4, human CD33-his protein; experiment: competition ELISA, coated human CD33-his, vs Biotin-C33B904 at EC80; antibody 250.00 nM
Experimental: as §3, §4

T2 sequence (P20138 18-259 limits assumed): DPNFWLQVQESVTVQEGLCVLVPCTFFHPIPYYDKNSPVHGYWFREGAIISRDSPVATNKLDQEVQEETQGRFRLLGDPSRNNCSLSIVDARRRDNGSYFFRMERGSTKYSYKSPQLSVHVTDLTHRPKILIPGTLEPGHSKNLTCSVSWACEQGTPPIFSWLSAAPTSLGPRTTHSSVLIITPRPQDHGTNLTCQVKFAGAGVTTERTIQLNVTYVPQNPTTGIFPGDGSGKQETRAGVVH
T4 sequence (P20138 18-259 limits assumed): as above
T3 sequence (P20138 other isoform, or with tags, fused parts or gaps limits assumed): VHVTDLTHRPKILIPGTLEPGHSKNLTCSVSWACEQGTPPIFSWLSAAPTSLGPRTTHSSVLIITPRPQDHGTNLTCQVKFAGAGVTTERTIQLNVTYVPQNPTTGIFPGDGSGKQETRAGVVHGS

Binder	EC50 (read off the curve) (monkey CD33-His protein)	inhibition rate [1]	inhibition rate [2]	inhibition rate [3]	EC50 (read off the curve) (human CD33-C2-his)	inhibition rate [4]	inhibition rate [5]	OD450 (Biotin-C33B904 signal) (human CD33-his protein [6])	OD450 (Biotin-C33B904 signal) (human CD33-his protein [7])	OD450 (Biotin-C33B904 signal) (human CD33-his protein [8])	OD450 (Biotin-C33B904 signal) (human CD33-his protein [9])
B1	~0.1 nM	100%	98%	101%	~0.05 nM	100%	99%	–	–	–	–
B2	–	–	–	–	–	–	–	2.02	0.88	0.32	0.1
